Our source for the Kd values is paper PMC7327521 (Journal of Molecular Biology, 2020).

What all share (experiment): fluorescence polarisation
In one experiment the target is T1, Spt6-tSH2 K1354E (C. glabrata, UniProt Q6FLB1 1250-1444, K1354E).
T1 sequence (looked up): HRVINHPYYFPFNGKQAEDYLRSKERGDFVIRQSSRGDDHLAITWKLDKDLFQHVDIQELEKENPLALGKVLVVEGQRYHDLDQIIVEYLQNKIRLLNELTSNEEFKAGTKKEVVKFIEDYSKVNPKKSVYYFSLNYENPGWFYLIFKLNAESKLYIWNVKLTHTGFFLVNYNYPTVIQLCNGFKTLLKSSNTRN

The next experiment concerns the target T2, Spt6-tSH2 K1434A (C. glabrata, UniProt Q6FLB1 1250-1444, K1434A).
T2 sequence (looked up): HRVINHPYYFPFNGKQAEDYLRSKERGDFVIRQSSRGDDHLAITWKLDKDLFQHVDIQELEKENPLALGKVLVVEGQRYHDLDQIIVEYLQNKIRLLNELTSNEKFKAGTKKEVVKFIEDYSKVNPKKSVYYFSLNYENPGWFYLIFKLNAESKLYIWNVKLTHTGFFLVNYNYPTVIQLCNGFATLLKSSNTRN

In a further experiment the target is T3, Spt6-tSH2 S1283A (C. glabrata, UniProt Q6FLB1 1250-1444, S1283A).
T3 sequence (looked up): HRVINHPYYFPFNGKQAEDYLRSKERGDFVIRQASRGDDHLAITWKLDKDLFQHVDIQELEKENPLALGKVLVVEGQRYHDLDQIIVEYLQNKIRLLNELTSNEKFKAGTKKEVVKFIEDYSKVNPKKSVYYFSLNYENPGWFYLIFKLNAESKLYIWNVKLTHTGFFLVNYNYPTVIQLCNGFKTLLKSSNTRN

For a further experiment, the target named is T4, Spt6-tSH2 E1324A (C. glabrata, UniProt Q6FLB1 1250-1444, E1324A).
T4 sequence (looked up): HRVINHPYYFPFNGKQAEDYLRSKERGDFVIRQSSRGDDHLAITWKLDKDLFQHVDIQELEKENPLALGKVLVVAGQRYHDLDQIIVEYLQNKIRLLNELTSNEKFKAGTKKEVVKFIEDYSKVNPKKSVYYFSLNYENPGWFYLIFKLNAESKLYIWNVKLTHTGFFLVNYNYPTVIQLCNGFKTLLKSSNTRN

Experiment [1] deals with T5, N-terminal SH2 domain of C. glabrata Spt6 (Spt6-N-SH2) (C. glabrata, UniProt Q6FLB1 1250-1354).
T5 sequence (looked up): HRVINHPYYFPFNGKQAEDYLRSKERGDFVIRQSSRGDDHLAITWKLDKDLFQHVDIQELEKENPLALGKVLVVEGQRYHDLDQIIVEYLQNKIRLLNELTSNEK

Another experiment addresses T6, Spt6-tSH2 R1281A (C. glabrata, UniProt Q6FLB1 1250-1444, R1281A).
T6 sequence (looked up): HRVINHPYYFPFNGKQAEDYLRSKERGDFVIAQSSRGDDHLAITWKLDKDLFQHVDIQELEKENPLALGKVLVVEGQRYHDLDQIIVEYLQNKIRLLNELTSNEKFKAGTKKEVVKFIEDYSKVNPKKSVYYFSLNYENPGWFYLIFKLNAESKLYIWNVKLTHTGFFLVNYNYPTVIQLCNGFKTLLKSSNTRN

Another experiment addresses T7, Spt6-tSH2 R1281A/S1284A (C. glabrata, UniProt Q6FLB1 1250-1444, R1281A | S1284A).
T7 sequence (looked up): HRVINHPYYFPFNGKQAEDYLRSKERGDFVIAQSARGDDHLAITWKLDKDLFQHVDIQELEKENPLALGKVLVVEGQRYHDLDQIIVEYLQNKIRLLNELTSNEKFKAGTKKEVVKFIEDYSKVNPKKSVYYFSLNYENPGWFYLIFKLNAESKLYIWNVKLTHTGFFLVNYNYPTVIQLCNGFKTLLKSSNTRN

A further experiment deals with T8, Spt6-tSH2 R1281A/S1283A (C. glabrata, UniProt Q6FLB1 1250-1444, R1281A | S1283A).
T8 sequence (looked up): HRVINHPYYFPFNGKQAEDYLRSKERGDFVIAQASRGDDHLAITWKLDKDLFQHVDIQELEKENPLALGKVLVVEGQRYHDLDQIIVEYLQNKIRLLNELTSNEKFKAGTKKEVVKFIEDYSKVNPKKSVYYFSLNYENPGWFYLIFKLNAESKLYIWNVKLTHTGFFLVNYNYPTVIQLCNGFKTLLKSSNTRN

In experiment [2] the target is T9, tandem SH2 domain of C. glabrata Spt6 (Spt6-tSH2) (C. glabrata, UniProt Q6FLB1 1250-1444).
T9 sequence (looked up): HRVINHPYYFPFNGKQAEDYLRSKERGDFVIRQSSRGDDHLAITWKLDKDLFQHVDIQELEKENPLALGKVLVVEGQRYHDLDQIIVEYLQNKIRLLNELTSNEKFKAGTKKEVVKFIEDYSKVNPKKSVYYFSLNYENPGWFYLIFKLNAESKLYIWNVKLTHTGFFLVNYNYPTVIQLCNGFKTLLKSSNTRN

Square brackets hold non-standard residues; d marks the D form. Ends that are not written are not given here. pY = N[C@@H](Cc1ccc(OP(=O)(O)O)cc1)C(=O)O

The term Kd denotes the constant that tells how readily two partners part at equilibrium. Read a high Kd as a looser complex.

B1: (pY1-CTD)2, FAM-labelled tyrosine-phosphorylated CTD diheptad (peptide)
peptide: {5,6‑FAM}-PS[pY]SPTSPS[pY]SPTSPS
With B1, the Kd is 16.3 µM with Spt6-tSH2 K1354E; 24 µM with Spt6-tSH2 K1434A; 5.4 µM in the experiment with Spt6-tSH2 S1283A; 1.4 µM with Spt6-tSH2 E1324A; 313 µM in [1]; 17.6 µM in the experiment with Spt6-tSH2 R1281A. The equilibrium dissociation constant (Kd) came to 11.4 µM with Spt6-tSH2 R1281A/S1284A, 35.5 µM with Spt6-tSH2 R1281A/S1283A and 5.1 µM in [2].
